Results taken from patent US20120034160A1 (AbbVie / Abbott, published 2012).

T1: Recombinant Human IL-17 (human, UniProt Q16552 20-155, limits assumed)
T1 construct: bought reagent
T1 sequence (looked up): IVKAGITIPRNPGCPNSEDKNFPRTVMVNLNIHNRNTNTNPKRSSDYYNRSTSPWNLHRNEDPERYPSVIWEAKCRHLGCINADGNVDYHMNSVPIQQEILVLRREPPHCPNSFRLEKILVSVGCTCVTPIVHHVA


Legend:
Recombinant Human IL-17 = molecular target: T1, Recombinant Human IL-17; test: Biacore SPR; C-terminal VD
Method in brief: (§1)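 Captured antibody or DVD-Ig bound antigen (10−200 nM) in HBS-EP at 25° C. KD = koff/kon from a 1:1 global fit.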

Recombinant Human IL-1β = molecular target: T2, Recombinant Human IL-1β (human, UniProt P01584 117-269); test: Biacore SPR; N-terminal VD
T2 construct: bought reagent; also called IL-1B
Method in brief: as §1

Binder | Kd (Recombinant Human IL-17) | koff (Recombinant Human IL-17) | kon (Recombinant Human IL-17) | Kd (Recombinant Human IL-1β) | koff (Recombinant Human IL-1β) | kon (Recombinant Human IL-1β)
DVD1627 (bispecific antibody, human IgG1, kappa, DVD-Ig, outer AB272, inner AB273, linker set 3; V1 wt hIgG1, V2 kappa; also called DVD1627H; DVD1627L) heavy: not shown light: ETTVTQSPSSLSASVGDRVTITCITSTDIDVDMNWYQQKPGKPPKLLISQGNTLRPGVPSRFSSSGSGTDFTFTISSLQPEDFATYYCLQSDNLPLTFGQGTKLEIKRTVAAPDIQMTQSPSSLSASVGDRVTITCRASSGIISYIDWFQQKPGKAPKRLIYATFDLASGVPSRFSGSGSGTDYTLTISSLQPEDFATYYCRQVGSYPETFGQGTKLEIKRTVAAPSVFIFPPSDEQLKSGTASVVCLLNNFYPREAKVQWKVDNALQSGNSQESVTEQDSKDSTYSLSSTLTLSKADYEKHKVYACEVTHQGLSSPVTKSFNRGEC | 8.4 pM | 1.7e-06 s⁻¹ | 200000 M⁻¹ s⁻¹ | 86 pM | 0.00059 s⁻¹ | 6.8e+06 M⁻¹ s⁻¹
DVD1609 (bispecific antibody, human IgG1, kappa, V1 wt hIgG1, V2 kappa; also called DVD1609H; DVD1609L) heavy: not shown light: DIQMTQSPSSLSASVGDRVTITCRASGNIHNYLTWYQQTPGKAPKLLIYNAKTLADGVPSRFSGSGSGTDYTFTISSLQPEDIATYYCQHFWSIPYTFGQGTKLQITRTVAAPSVFIFPPEIVLTQSPDFQSVTPKEKVTITCRASQNIGSELHWYQQKPDQSPKLLIKYASHSISGVPSRFSGSGSGTDFTLTINGLEAEDAATYYCHQSDTLPHTFGQGTKVDIKRTVAAPSVFIFPPSDEQLKSGTASVVCLLNNFYPREAKVQWKVDNALQSGNSQESVTEQDSKDSTYSLSSTLTLSKADYEKHKVYACEVTHQGLSSPVTKSFNRGEC | ≤ 0.84 pM | < 1e-06 s⁻¹ | 89000 M⁻¹ s⁻¹ | 22 pM | 4.6e-05 s⁻¹ | 2.1e+06 M⁻¹ s⁻¹
DVD1611 (bispecific antibody, human IgG1, kappa, V1 wt hIgG1, V2 kappa; also called DVD1611H; DVD1611L) heavy: not shown light: DIQMTQSPSSLSASVGDRVTITCRASGNIHNYLTWYQQTPGKAPKLLIYNAKTLADGVPSRFSGSGSGTDYTFTISSLQPEDIATYYCQHFWSIPYTFGQGTKLQITRTVAAPSVFIFPPEIVLTQSPDFQSVTPKEKVTITCRASQNIGSELHWYQQKPDQSPKLLIKYASHSISGVPSRFSGSGSGTDFTLTINGLEAEDAATYYCHQSDTLPHTFGQGTKVDIKRTVAAPSVFIFPPSDEQLKSGTASVVCLLNNFYPREAKVQWKVDNALQSGNSQESVTEQDSKDSTYSLSSTLTLSKADYEKHKVYACEVTHQGLSSPVTKSFNRGEC | 15 pM | 6e-05 s⁻¹ | 4.1e+06 M⁻¹ s⁻¹ | 420 pM | 0.00013 s⁻¹ | 310000 M⁻¹ s⁻¹
DVD1625 (bispecific antibody, human IgG1, kappa, DVD-Ig, outer AB271, inner AB273, linker set 3; V1 wt hIgG1, V2 kappa; also called DVD1625H; DVD1625L) heavy: not shown light: DTVVTQSPAFLSVTPGEKVTITCITSTDIDVDMNWYQQKPDQPPKLLISQGNTLRPGVPSRFSSSGSGTDFTFTISSLEAEDAATYYCLQSDNLPLTFGQGTKLEIKRTVAAPDIQMTQSPSSLSASVGDRVTITCRASSGIISYIDWFQQKPGKAPKRLIYATFDLASGVPSRFSGSGSGTDYTLTISSLQPEDFATYYCRQVGSYPETFGQGTKLEIKRTVAAPSVFIFPPSDEQLKSGTASVVCLLNNFYPREAKVQWKVDNALQSGNSQESVTEQDSKDSTYSLSSTLTLSKADYEKHKVYACEVTHQGLSSPVTKSFNRGEC | 5.1 pM | 3.2e-06 s⁻¹ | 630000 M⁻¹ s⁻¹ | 63 pM | 0.00054 s⁻¹ | 8.6e+06 M⁻¹ s⁻¹

Continued, values first:

Kd (Recombinant Human IL-17) | koff (Recombinant Human IL-17) | kon (Recombinant Human IL-17) | Kd (Recombinant Human IL-1β) | koff (Recombinant Human IL-1β) | kon (Recombinant Human IL-1β) | Binder
≤ 0.15 pM | < 1e-06 s⁻¹ | 360000 M⁻¹ s⁻¹ | 59 pM | 0.00046 s⁻¹ | 7.8e+06 M⁻¹ s⁻¹ | DVD1613 (bispecific antibody, human IgG1, kappa, DVD-Ig, outer AB270, inner AB275, linker set 2; V1 wt hIgG1, V2 kappa; also called DVD1613H; DVD1613L) heavy: not shown light: DTQVTQSPSSLSASVGDRVTITCITSTDIDVDMNWYQQKPGKPPKLLISQGNTLRPGVPSRFSSSGSGTDFTFTISSLQPEDFATYYCLQSDNLPLTFGQGTKLEIKRTVAAPSVFIFPPEIVLTQSPDFQSVTPKEKVTITCRASQNIGSELHWYQQKPDQSPKLLIKYASHSISGVPSRFSGSGSGTDFTLTINGLEAEDAATYYCHQSDTLPHTFGQGTKVDIKRTVAAPSVFIFPPSDEQLKSGTASVVCLLNNFYPREAKVQWKVDNALQSGNSQESVTEQDSKDSTYSLSSTLTLSKADYEKHKVYACEVTHQGLSSPVTKSFNRGEC
≤ 0.034 pM | < 1e-06 s⁻¹ | 230000 M⁻¹ s⁻¹ | 75 pM | 0.00049 s⁻¹ | 6.6e+06 M⁻¹ s⁻¹ | DVD1623 (bispecific antibody, human IgG1, kappa, DVD-Ig, outer AB270, inner AB273, linker set 3; V1 wt hIgG1, V2 kappa; also called DVD1623H; DVD1623L) heavy: not shown light: DTQVTQSPSSLSASVGDRVTITCITSTDIDVDMNWYQQKPGKPPKLLISQGNTLRPGVPSRFSSSGSGTDFTFTISSLQPEDFATYYCLQSDNLPLTFGQGTKLEIKRTVAAPDIQMTQSPSSLSASVGDRVTITCRASSGIISYIDWFQQKPGKAPKRLIYATFDLASGVPSRFSGSGSGTDYTLTISSLQPEDFATYYCRQVGSYPETFGQGTKLEIKRTVAAPSVFIFPPSDEQLKSGTASVVCLLNNFYPREAKVQWKVDNALQSGNSQESVTEQDSKDSTYSLSSTLTLSKADYEKHKVYACEVTHQGLSSPVTKSFNRGEC
